Results as given in patent CN109988240A (ANYUAN BIOTECHNOLOGY SHANGHAI CO LTD; PHARMAB SHANGHAI …, dated 2019).
Positions count from the first letter of the chain named. Each block holds one binder with its values, some of them ahead of it.

How the values were obtained:
[1] = target: T1, 人GPC-3-His(北京义翘神州生物) (human, UniProt P51654 25-559); experiment: affinity and kinetics of Table 2 (table not shown; method not named here, taken as BLI of Example 3.2)
T1 construct: Bought His-tagged protein, coupled to Ni-NTA sensors in the BLI assay; not shown: His tag

[2] = target: T2, 人GPC-3抗原 (磷脂酰肌醇蛋白聚糖3, Glypican-3) (human, UniProt P51654 25-559, limits assumed); experiment: indirect ELISA, GPC-3 antigen coated at 0.2 μg/ml
T2 construct: The immunogen was bought from Sino Biological (北京义翘神州生物); also called GPC-3蛋白

[3] = target: T1, 人GPC-3-His(北京义翘神州生物); experiment: BLI (ForteBio Octet), human GPC-3-His on Ni-NTA sensor
[4] = target: T1, 人GPC-3-His(北京义翘神州生物); experiment: BLI (ForteBio Octet), human GPC-3-His on Ni-NTA sensor, antibody 3.125-100 nM
[5] = target: T2, 人GPC-3抗原 (磷脂酰肌醇蛋白聚糖3, Glypican-3); experiment: indirect ELISA on coated GPC-3, goat anti-human IgG-HRP detection
[6] = target: T2, 人GPC-3抗原 (磷脂酰肌醇蛋白聚糖3, Glypican-3); experiment: competition ELISA on coated GPC-3 (0.1 μg/ml), competitor GPC-3 antibody-HRP

T1 sequence (P51654 25-559 limits assumed): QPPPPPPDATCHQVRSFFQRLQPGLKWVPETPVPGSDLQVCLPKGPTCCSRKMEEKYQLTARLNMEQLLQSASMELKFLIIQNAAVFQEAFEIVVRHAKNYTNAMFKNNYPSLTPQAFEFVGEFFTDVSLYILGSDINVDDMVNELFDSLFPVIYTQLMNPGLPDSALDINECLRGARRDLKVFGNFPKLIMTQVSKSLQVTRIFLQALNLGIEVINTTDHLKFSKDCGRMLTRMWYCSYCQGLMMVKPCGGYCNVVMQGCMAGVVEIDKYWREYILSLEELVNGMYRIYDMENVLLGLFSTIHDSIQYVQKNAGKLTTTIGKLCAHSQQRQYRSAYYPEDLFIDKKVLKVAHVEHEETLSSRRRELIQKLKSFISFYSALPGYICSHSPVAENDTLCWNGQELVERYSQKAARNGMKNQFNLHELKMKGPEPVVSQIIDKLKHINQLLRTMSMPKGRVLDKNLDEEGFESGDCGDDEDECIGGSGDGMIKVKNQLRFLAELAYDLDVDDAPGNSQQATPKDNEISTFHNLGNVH
T2 sequence (P51654 25-559 limits assumed): as above

B1: 人源化抗体AB13E3 (antibody, V domains shown)
VH: QVQLVQSGAEVKKPGASVKVSCKASGYTFTDYEMHWVKQAPGQGLEWIGAIDPQTGNTAFNQKFKGRVTLTRDKSSSTVYMELSSLRSEDTAVYYCTRFYSLTYWGQGTLVTVSS
VL: DVLMTQSPLSLPVTLGQPASISCRSSQSIVHSNGNTYLQWYLQRPGQSPKLLIYKVSNRFSGVPDRFSGSGSGTYFTLKISRVEAEDVGVYYCFQGSHFPYAFGGGTKVEIK
notes: Humanized from GPC3#4 by CDR grafting; detected with goat anti-human IgG
Kd [1]: < 0.01 nM

B3: 人源化抗体AB13E1 (antibody, V domains shown)
VH: B1 VH with K38R, I48M, A50I, A59S, F60Y, N61A, K65Q, L70M, K74T, S76T
VL: B1 VL with L3V, Q39N, Y41F, L42Q, K50R, L51R, F60D, Y75D
notes: Humanized from GPC3#4 by CDR grafting
Kd [1]: < 0.01 nM

B4: 人源化抗体AB13E4 (antibody, V domains shown)
VH: B1 VH with K12V, V20L, A40T, V68A, V79A, L83V, D90G
VL: B1 VL with R44K, V109L
notes: Humanized from GPC3#4 by resurfacing; detected with goat anti-human IgG
EC50 [5]: 0.001 to 0.01 µg/mL | EC50 [6]: 0.1 to 1 µg/mL | Kd [1]: < 0.01 nM

B6: 人源化抗体AB13E2 (antibody, V domains shown)
VH: B1 VH with K38R, A59S, F60Y, N61A, K65Q, L70M, K74T, S76T
VL: B1 VL with L3V, Q39N, Y41F, L42Q, F60D, Y75D, V109L
notes: as for B3
Kd [1]: < 0.01 nM

Results, then the binder that gave them:

EC50 [2]: ~0.01 µg/mL | Kd [3]: < 0.01 nM | Kd [4]: 0.00107 nM | koff [4]: 1e-07 s⁻¹ | kon [4]: 624000 M⁻¹ s⁻¹
B2: 鼠单克隆抗体GPC3#4(杂交瘤细胞株DWX-1分泌) (antibody, V domains shown)
VH: QVQLQQSGAELVRPGAPVTLSCKASGYTFTDYEMHWVKQTPVNGLEWIGAIDPQTGNTAFNQKFKGKAILTADKSSSTAYMEVRSLTSEGSAVYYCTRFYSLTYWGQGTLVTVSA
VL: B1 VL with S7V, T14S, Q17D, P18Q, R44K, V88L, V109L
notes: Mouse antibody purified from hybridoma DWX-1; also called 鼠源抗体GPC3#4; 鼠单抗GPC3#4

Kd [1]: < 0.01 nM
B5: 人源化抗体AB13E5 (antibody, V domains shown)
VH: QVQLVQSGAEVKKPGASVTLSCKASGYTFTDYEMHWVRQAPGQGLEWMGIIDPQTGNTSYAQKFQGRVTMTRDTSTSTVYMELSSLRSEGSAVYYCTRFYSLTYWGQGTLVTVSS
VL: B1 VL with L3V, Q17D, P18Q, Q39N, Y41F, L42Q, K50R, L51R, F60D, Y75D
notes: as for B3
